A short description of the data set: yeast display, Sf9 membrane polyspecificity reagent, FACS + sequencing; frameworks hold sequencing errors. The procedure, abridged: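 Galactose induction of a Saccharomyces cerevisiae BJ5465 synthetic nanobody display library ran 36–48 hours. The cells were then stained for 1 hour at 4 °C with 10% biotinylated, detergent-solubilized Sf9 membrane reagent, pulled down on streptavidin microbeads and FACS-sorted into low and high (top ~1%) gates on expression and reagent-binding fluorescence. Labels for polyreactivity follow the gate of origin.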
“QVQLIESGGGLVHAGGSLRLSCAASGSTYQANTMGWYSHAPGKERQLVAAISIRGANTYYADSVKGRFTISRDNAKNTVYIQMNSLKPEDTAVYDCATRVRKYSLRLDYWGQGTQVTVSS”: the “polyreactivity (PSR sort gate)” value was “high polyreactivity”. As for “QVQLIESGGGLVQAGGSLRLSCAASGGTFRAYAMGWYRQAPGKEREFVAAITWSGGRTYYADSVKGRFTISRDNAKNTVYLQMNSLKPEDTEVYYCATDQGHYYHAEHDYWGQGTQVTVSS”, the “polyreactivity (PSR sort gate)” value was “low polyreactivity”. To “QVQLIESGGGLVQAGGSLRLSCAASGLTFYSYAMGWYRQAPGKEREFVAVINWSGGRTYYADSVKGRFTISRDTAKNTVFLQMNSLKPEDTAVYYCAAVRYFASSRRYDYLGQGTQVTVSS” belongs “high polyreactivity”; to “QVQLIESGGGLVQAGGSLRLSCAASGNIFAVYAMGWYRQAPGKERELVASITVSGASTYYADSVKGRFTISRDNAKNTVYLQMNSLKPEDTAVYYCAARIGSNQRKRYYWGQGTQVTVSS”, “high polyreactivity”. Consider “QVQLIESGGGLVQAGGSLRLSCAASGSIFYINTMGWYRQAPGKERELVATIRTSGGSTYADSVKGRFTISRDNAKNTVYLQMNSLKPEDTAVYYCAVRRYRSSSYGYYSWGQGTQVTVSS”, for which the “polyreactivity (PSR sort gate)” value is on record as “high polyreactivity”. On to “QVQLIESGGGLVQAGGSLRLSCAASGSTGIYAMGWYRQAPGKERELVAAITRRAGSTYYADSVKGRFTISRDNAKNTVYLQMNSLKPEDTAVYYCAAKGLWWYGTYVSYEYWGKGTQVTVSS”, for which the “polyreactivity (PSR sort gate)” value is given as “low polyreactivity”.

As for “QVQLKDSGCGLVQAGGSLRLSCAASGTISYRYRMGWYREAPRKELELVAGISFGSITYYADSVKGRFTISRDNAKNTVYLQMNSLKPVDIAVYYCAVYQKSYRFFPYWGQGTQVTVSS”, the “polyreactivity (PSR sort gate)” value was “high polyreactivity”. Consider “QVQLKESGGGLVQAGGSLRLSCAASGNIVDADIMGWYRQAPGKERELVASITDGGSTNYADSVKGRFTISRDNAKNTVYLQMNSLKPEDTAVYYCAAIAYPDIPTYFDYDSEYFYWGQGTQVTVSS”, for which the “polyreactivity (PSR sort gate)” value is recorded as “low polyreactivity”. For the sequence “QVQLLESAGGLVQAGGSLRLSCAASGTIGYNGWYRQAPGKERELVAAISTRDGSTYYADSVKGRFTISRDNAMNTGYLQINSLKPEDTAVYYCAARYPSDYDYWGQGTQVTVSS”, the “polyreactivity (PSR sort gate)” value was “low polyreactivity”. In the case of “QVQLLESCGGLVQAGGSLRLSCAASGIIFARYAMGWYRPAPGKERELVASITTSGGRTYYADSVKGRFTISRDNAKNTVYLQMNSVKPEDTAVYYCAAYYKRDQMYYWGQGTQVTVSS” it was “high polyreactivity”. In the case of “QVQLLESGCGLVQAGGSLRLSCMASGSSLGDRMSWYRQAPGKEHELVATIYDGGITYYADSMKGRFTISRENAKNSVYLQMNSLRPEDTAVYYCGDSFEGYRYHVYCGQGTQVTVSS” it was “low polyreactivity”; in that of “QVQLLESGGGIVQAGGSLRLSCVASGFTISVYAMVWYRHAPGKERELVAAISRVGSSNYADSVKGRFTISRDNAKNTVYLHMISLKTEDTSVYYCNAVLRHTWVSRGYGSWGQGTQVSVSS”, “high polyreactivity”; in that of “QVQLLESGGGLDQSGGSLRLSCAASGRIFTFNAMGWYRQAPGQERELVAAIRFRDGSTYYADSVKGRFTISRDNAKNNGYLQMYSLKPEDTAVYYSAATAYPWPYYYWGQGTQVTVSS”, “high polyreactivity”. For “QVQLLESGGGLFQAGGILRLSCAASGLIFWSNAMGWYRKEPGKERELVAAISRRGGRTYYADSVKGRFTISRDNAKNTVYVQMNSLKPEDSALYYCNADLYFLTFGYDYWGQGTQVTVSS”, the “polyreactivity (PSR sort gate)” value is reported as “high polyreactivity”.

As to “QVQLLESGGGLVQAGGRHRLSCAASGRTFPGNAMGWYRKAPGKERELVAAISWSVDRTYYADSVKGRFTISRDNAKNTVYLQMNSLKPEDTSVYYCAAVEWWSSSLRMYYWGQGTQETVSS”, the “polyreactivity (PSR sort gate)” value is on record as “low polyreactivity”. To “QVQLLESGGGLVQAGGSHRLSCAASGYIFHYNAMGWYIQAPGKERELVAAISYSGGSTYYADSVKGRFTISRDNAKNTVYLQMNSLKPEDTAVYYCAASRRPFPGYYWGQGTQVTVSS” belongs “high polyreactivity”; to “QVQLLESGGGLVQAGGSIRLSCSASGRTFARYVMGWYRQAPGKERELVASISNSGGSTYYSDSVKGRFTISRDNAQNTVYLQMNSLKPEDTEVYYCARRYYYYTTYRYDYWGQGTQVTVSS”, “high polyreactivity”; to “QVQLLESGGGLVQAGGSLRFTGAASGSTIAGNAMVWYRHEPGKERELVAVITRGGSTNYADSVKGRFTISRDNAKNNVYLQMNSLKPEDTAVYYCARYRFLLDYWRGGYYWGQGTQVTVSS”, “high polyreactivity”.

With “QVQLLESGGGLVQAGGSLRISCAASGFTFWYYAMGWYRQAPGKERELVAAITSSGGSTYYADSVKGRFTISRDNAKNTVYLQMNSLKPEDTAVYYCAAGAPYRYYYWGQGTQVTVSS”, the “polyreactivity (PSR sort gate)” value is on record as “high polyreactivity”. On to “QVQLLESGGGLVQAGGSLRISCAASGIFDPNAMGWYIQAPGKERELVAAITSGGSTNYADSVKGRFTISRDNAKNTFYLQMNSLKPEDTAVYYCNEDYDRPDFYFWVQGTQVTVSS”, for which the “polyreactivity (PSR sort gate)” value is given as “low polyreactivity”.

“QVQLLESGGGLVQAGGSLRISCAASGRTFTYNAMGWYRQAPGKERELVAAITASGGSTYYADSVKGRFTISRDNAKNTVYLQMNSLKPEDTAVYYCAARWSSPYVKLGYWGQGTQVTVSS”: the “polyreactivity (PSR sort gate)” value was “high polyreactivity”. To “QVQLLESGGGLVQAGGSLRLRCAASGFTFRKYTMGWYRQAPGKERELVAAISSGVSTNYADSVKGRFTISRDNAKKTVYLQMNSLKAEDTAVYYCAARGGYYQGRYKYGYWGQGTQVTVSS” belongs “high polyreactivity”; to “QVQLLESGGGLVQAGGSLRLSCAASGFIFYEYAMGWYRQAPGKERELVAAITSGGSTDYADSVKGRFTISRDNAKNTVYLQMNSLKPEDTAVYYCNADLFTGYYWYNYWGQGTQVTVSS”, “low polyreactivity”. With “QVQLLESGGGLVQAGGSLRLSCAASGGTFPQYAMGWYRKAPGKERELVAVNTRSGRTNYADTVKARFTISRDNAKNTVYVQMNSLKPEDTAVYYCNADEVDDEVSPDLTEMDYWGQGTQVTVSS”, the “polyreactivity (PSR sort gate)” value is recorded as “low polyreactivity”.

For “QVQLLESGGGLVQAGGSLRLSCAASGLIMVYYTMGWYRQAPGKERELVASISKSGGRTYYADSVKGRFTISRDNAKNTVYLQMNSLKPEDTAVYYCAAQRVQYSRRDYWGQGTQVTVSS”, the “polyreactivity (PSR sort gate)” value is “high polyreactivity”. To “QVQLLESGGGLVQAGGSLRLSCAASGLTVYGYVMAWYRHAPGKERELVASISRSGCRTYYADSVKGRFTISRDNEKNTVYLQMNSLKPEDTAVYYCAADDQVGQEDDYWGQGTQVTVSS” belongs “low polyreactivity”; to “QVQLLESGGGLVQAGGSLRLSCAASGNTLRYNVMGWYRQAPGKERELFAAISGGGSTSYADSVKGRFTISRDNAKNTVYLQMNSLKPEDTAVYYCAKRSFVGGRGRDSDYRGQGTQVTVSS”, “low polyreactivity”; to “QVQLLESGGGLVQAGGSLRLSCAASGRIFPRYAMGWYRQAPGKERELVASITRRGGSTYYADSVKGRFTISRDNAKNTVYLQMNSLKPEDTAVYYCNALPRAQSYELYNYWGQGTQVTVSS”, “high polyreactivity”. In the case of “QVQLLESGGGLVQAGGSLRLSCAASGRIFYVNAMGWYRQSPGKERELVAGIDDGVTTYYADSVKGRFTISRDNAKNTVYLLMNRLKPEDTAVYYCAAETSTNPEAYEYWGQGTQVTVSS” it was “low polyreactivity”; in that of “QVQLLESGGGLVQAGGSLRLSCAASGRTFVSYDMGWDRQAPGKEREVVAAITYSGGASTYYADSVKGRFTISRDYAKKTGYFQMNSLIPEDTAVYYCATDFSLSFELDYWGQGTQVTVSS”, “low polyreactivity”.

Values taken from the nanobody polyreactivity screen of Harvey et al. (2022).
